According to PMC13615978:

B1: Ede1 IDR-CC (residues 366-900) tagged with mEGFP (domain or fragment)
chain: GLYPPNPLPQQQSAPQIAIPSRASKPSLQDMPHQVSAPAVNTQPTVPQVLPQNSNNGSLNDLLALNPSFSSPSPTKAQTVVQNNTNNSFSYDNNNGQATLQQQQPQQPPPLTHSSSGLKKFTPTSNFGQSIIKEEPEEQEQLRESSDTFSAQPPPVPKHASSPVKRTASTTLPQVPNFSVFSMPAGAATSAATGAAVGAAVGAAALGASAFSRSSNNAFKNQDLFADGEASAQLSNATTEMANLSNQVNSLSKQASITNDKKSRATQELKRVTEMKNSIQIKLNNLRSTHDQNVKQTEQLEAQVLQVNKENETLAQQLAVSEANYHAAESKLNELTTDLQESQTKNAELKEQITNLNSMTASLQSQLNEKQQQVKQERSMVDVNSKQLELNQVTVANLQKEIDGLGEKISVYLTKQKELNDYQKTVEEQHAQLQAKYQDLSNKDTDLTDREKQLEERNRQIEEQENLYHQHVSKLQEMFDDLSQRKASFEKADQELKERNIEYANNVRELSERQMNLAMGQLPEDAKDIIAKSAS

Tests used:
[1] = target: Sla2 IDR-CC-mScarlet (IDR, coiled-coil and REND regions) (S. cerevisiae) (UniProt P33338)
Sequence of UniProt P33338 (P33338 261-746): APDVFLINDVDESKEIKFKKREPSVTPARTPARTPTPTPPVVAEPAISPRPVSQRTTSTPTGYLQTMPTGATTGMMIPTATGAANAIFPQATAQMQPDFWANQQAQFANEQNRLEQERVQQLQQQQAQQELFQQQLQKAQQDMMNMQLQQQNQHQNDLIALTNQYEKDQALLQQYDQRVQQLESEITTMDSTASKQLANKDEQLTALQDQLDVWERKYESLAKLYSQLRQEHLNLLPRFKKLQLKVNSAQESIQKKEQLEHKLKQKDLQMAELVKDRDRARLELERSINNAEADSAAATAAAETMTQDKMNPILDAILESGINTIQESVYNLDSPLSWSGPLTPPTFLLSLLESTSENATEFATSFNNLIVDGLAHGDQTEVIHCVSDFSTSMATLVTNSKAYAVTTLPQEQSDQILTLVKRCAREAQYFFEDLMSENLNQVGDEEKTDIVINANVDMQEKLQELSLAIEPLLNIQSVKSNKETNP

[2] = target: Sla2 IDR-CC-mScarlet (IDR, coiled-coil and REND regions) (S. cerevisiae) (UniProt P33338); remark: listed apart in the source

Molecule | ID/IS of Clathrin (green channel) with Sla2 IDR-CC-mScarlet droplets, 2.5% (w/v) PEG 8000 [1] | ID/IS of Sla2 IDR-CC-mScarlet (magenta channel) in the presence of Clathrin, 2.5% (w/v) PEG 8000 [1] | ID/IS of 20 µM Sla2 IDR-CC when mixed with 45 µM Ede1 IDR-CC (4.7 for Sla2 IDR-CC alone), 2.5% (w/v) PEG 8000 [2] | droplet-to-solution intensity ratio (ID/IS) of 5 µM Ede1 IDR-CC in condensates of 20 µM Sla2 IDR-CC, 2.5% (w/v) PEG 8000 [2]
"Clathrin" construct: full-length CLC and CHC distal leg (residues 1172-1572) heterodimer conjugated to mNeonGreen (from UniProt P17891 1-233; P22137 1172-1572) (complex) | 3.6 | 6.9 | – | –
B1 | – | – | 7.8 | 4
